Biological target: T1, His-RosE (Salmonella enterica serotype Typhimurium) (UniProt Q8ZK37)
T1 sequence: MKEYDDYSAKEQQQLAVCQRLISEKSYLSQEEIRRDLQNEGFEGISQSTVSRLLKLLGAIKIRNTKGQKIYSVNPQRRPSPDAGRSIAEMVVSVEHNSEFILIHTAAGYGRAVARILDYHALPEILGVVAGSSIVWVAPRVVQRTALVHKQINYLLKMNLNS
Assay: EMSA

**Q.** With “TAAAAAGTATTTCTTTGATGATTATTCTTAAATTACGATCATAATCATCGATCGTATCGATCTATTTTTATTGTTTTAATTTGAATAAGAATTTTCTTACAACTGATTAGGCATTAGCTGAAATCAATATTTTTCGATGGAAAGTTCAGG (double strand) [stdA upstream region 1]” as the sequence, how does the binding read?
**A.** no binding

— article PMC2328253
